Measured values published in US20180142016A1.

B1: P601-128 (scFv, from another filing, V domains shown)
VH: EVQLVQSGAEVKKPGESLKISCKGSGYSFSRYWIGWVRQMPGKGLEWMGIIYPRDSDTRYSPSFQGQVTISADKSISTAYLQWSSLKASDTAMYYCATPVVTAGAFDIWGQGTMVTVSS
VL: DIQMTQSPSSVSASVGDRVTITCRASQGISSWLAWYQQKPGKAPKLLIYAASSLQSGVPSRFSGSGSGTDFTLTISSLQPEDFATYYCQQANSFPLTFGGGTKVEIK
B2: P601-153 (scFv, from another filing, V domains shown)
VH: QMQLVQSGAEVKKPGASVKVSCKASGYTFTSYYMHWVRQAPGQGLEWMGIINPSGGSTSYAQKFQGRVTMTRDTSTSTVYMELSSLRSEDTAVYYCARGGYTGWSPSDPWGQGTLVTVSS
VL: QSALTQPASVSGSPGQSITISCTGTSSDVGGYNYVSWYQQHPGKAPKFMIYDVSKRPSGVSNRFSGSKSGNTASLTISGLQAEDEADYYCGSFTSSITYVFGTGTKVTVL
B3: P601-149 (scFv, from another filing, V domains shown)
VH: EAQLVESGGGLVKPGGSLRLSCAASGFTFSDYYMGWVRQAPGKGLKWLSYISDRAHTIYDTDSVKGRFTISRDDAKSSLYLRMNNLRVEDTAVYYCARAVGAGEGFDYWGQGTLVTVSS
VL: DIQLTQSPSSLSASVGDRVTITCQASQDVRNYLNWYQQKPGKAPNLLIYDATNLESGVPSRFSGSGSGTDFTFTISSLQPEDFATYYCQQYDNLPLSFGGGTKVEIK

Each binder was assayed against human ROR1 extracellular domain (ECD) protein (human) (UniProt Q01973) (assay: competitive phage ELISA, soluble vs coated ROR1).
human ROR1 extracellular domain (ECD) protein (human), sequence (Q01973 30-406 limits assumed): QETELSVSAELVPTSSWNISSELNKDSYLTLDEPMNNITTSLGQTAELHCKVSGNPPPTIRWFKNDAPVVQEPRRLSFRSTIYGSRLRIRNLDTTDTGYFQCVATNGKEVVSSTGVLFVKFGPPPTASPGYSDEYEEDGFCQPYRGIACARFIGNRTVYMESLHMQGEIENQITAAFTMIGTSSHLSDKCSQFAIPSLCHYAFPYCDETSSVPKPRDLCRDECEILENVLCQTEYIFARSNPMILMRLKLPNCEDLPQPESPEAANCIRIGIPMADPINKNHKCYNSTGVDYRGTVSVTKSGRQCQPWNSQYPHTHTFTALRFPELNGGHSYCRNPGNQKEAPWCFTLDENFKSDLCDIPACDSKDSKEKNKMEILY

| IC50 [nM] | Binder |
| --- | --- |
| 263 | B1 |
| 1.53 | B2 |
| 2.76 | B3 |
